cellulose membrane = not defined here
T1: 41st of the 82 13-mer peptides covering the extracellular region of CD40 (cysteine pairing not given here; reading uncertain)
T1 construct: also called 41st peptide
T1 peptide: Ac-TICTCEEGWHCTS-{cellulose membrane}

T2: 42nd of the 82 13-mer peptides covering the extracellular region of CD40 (cysteine pairing not given here; reading uncertain)
T2 construct: also called 42nd peptide
T2 peptide: Ac-CTCEEGWHCTSEA-{cellulose membrane}

T3: 20th of the 82 13-mer peptides covering the extracellular region of CD40 (cysteine pairing not given here; reading uncertain)
T3 construct: also called 20th peptide
T3 peptide: Ac-CLPCGESEFLDTW-{cellulose membrane}

T4: 21st of the 82 13-mer peptides covering the extracellular region of CD40 (reading uncertain)
T4 construct: also called 21st peptide
T4 peptide: Ac-PCGESEFLDTWNR-{cellulose membrane}

T5: 22nd of the 82 13-mer peptides covering the extracellular region of CD40 (reading uncertain)
T5 construct: also called 22nd peptide
T5 peptide: Ac-GESEFLDTWNRET-{cellulose membrane}

T6: 23rd of the 82 13-mer peptides covering the extracellular region of CD40 (reading uncertain)
T6 construct: also called 23rd peptide
T6 peptide: Ac-SEFLDTWNRETHC-{cellulose membrane}

T7: 24th of the 82 13-mer peptides covering the extracellular region of CD40 (reading uncertain)
T7 construct: also called 24th peptide
T7 peptide: Ac-FLDTWNRETHCHQ-{cellulose membrane}


Columns and labels:
[1] = biological target: T8, human CD40 expressed on cells (Ramos, T24, Hs 766T, Capan-2) (human, UniProt P25942 21-277); test: cell-based or functional assay
[2] = biological target: T1, 41st of the 82 13-mer peptides covering …; test: SPOT peptide array (13-mers on cellulose membrane), Western-type detection, spot intensity by LumiImager
Method: (§1) The reaction thereafter was carried out based on a conventional Western analysis (see Reineke, U. et al. (2001), “Epitope mapping with synthetic peptides prepared by SPOT synthesis.” Antibody Engineering (Springer Lab Manual) Eds.: Kontermann/Dubel, 433-459, for example). In the analysis, coloring intensity of each spot was quantified using Lumilmager™ (Boehringer-Mannheim Corp.) (FIG. 1A-1, 1A-2, 1B-1 and B-2).

[3] = biological target: T2, 42nd of the 82 13-mer peptides covering …; test: as above
Method: as §1

[4] = biological target: T8, human CD40 expressed on cells (Ramos, …); test: flow cytometry on Ramos cells
[5] = biological target: T9, CD40mut2 (mutant CD40-FC fusion protein) (UniProt P25942 21-193, limits assumed); test: ELISA on mutant CD40-FC fusion protein
T9 construct: Human CD40 implied

[6] = biological target: T3, 20th of the 82 13-mer peptides covering …; test: SPOT peptide array (13-mers on cellulose membrane), Western-type detection, spot intensity by LumiImager
Method: as §1

[7] = biological target: T4, 21st of the 82 13-mer peptides covering …; test: as above
Method: as §1

[8] = biological target: T5, 22nd of the 82 13-mer peptides covering …; test: as above
Method: as §1

[9] = biological target: T6, 23rd of the 82 13-mer peptides covering …; test: as above
Method: as §1

[10] = biological target: T7, 24th of the 82 13-mer peptides covering …; test: as above
Method: as §1

T8 sequence (P25942 21-277): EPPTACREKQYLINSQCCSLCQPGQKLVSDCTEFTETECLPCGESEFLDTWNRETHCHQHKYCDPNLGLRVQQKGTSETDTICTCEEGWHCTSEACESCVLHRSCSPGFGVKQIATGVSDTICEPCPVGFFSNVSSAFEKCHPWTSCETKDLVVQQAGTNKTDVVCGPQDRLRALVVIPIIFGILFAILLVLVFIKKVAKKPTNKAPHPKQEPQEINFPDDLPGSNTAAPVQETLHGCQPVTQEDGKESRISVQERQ
T9 sequence (P25942 other isoform, or with tags, fused parts or gaps mutant limits assumed): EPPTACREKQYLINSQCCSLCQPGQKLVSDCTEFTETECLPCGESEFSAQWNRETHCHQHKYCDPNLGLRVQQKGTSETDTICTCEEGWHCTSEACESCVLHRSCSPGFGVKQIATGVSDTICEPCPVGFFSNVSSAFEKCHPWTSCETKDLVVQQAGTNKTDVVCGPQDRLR

Row | CD95 expression enhancing activity in Ramos cells, reduction against IgG2 [1] | binding result [4] | Binder | other results
1 |  | binds | 4D11 antibody (original subclass IgG1) (antibody, V domains shown, also called 4D11G1) VH: QLQLQESGPGLLKPSETLSLTCTVSGGSISSPGYYGGWIRQPPGKGLEWIGSIYKSGSTYHNPSLKSRVTISVDTSKNQFSLKLSSVTAADTAVYYCTRPVVRYFGWFDPWGQGTLVTVSS VL: AIQLTQSPSSLSASVGDRVTITCRASQGISSALAWYQQKPGKAPKLLIYDASNLESGVPSRFSGSGSGTDFTLTISSLQPEDFATYYCQQFNSYPTFGQGTKVEIK | binding result [5]: binds; binding result [6]: binds; binding result [7]: binds; binding result [8]: binds; binding result [9]: binds; binding result [10]: binds; binding result [2]: binds
2 |  | binds | 4D11G4PE (4D11 antibody, IgG4 with S228P and L235E) (antibody, V domains shown, also called IgG4PE; 4D11 antibody G4PE) VH: QLQLQESGPGLLKPSETLSLTCTVSGGSISSPGYYGGWIRQPPGKGLEWIGSIYKSGSTYHNPSLKSRVTISVDTSKNQFSLKLSSVTAADTAVYYCTRPVVRYFGWFDPWGQGTLVTVSS VL: AIQLTQSPSSLSASVGDRVTITCRASQGISSALAWYQQKPGKAPKLLIYDASNLESGVPSRFSGSGSGTDFTLTISSLQPEDFATYYCQQFNSYPTFGQGTKVEIKR | 
3 |  | binds | 4D11G4P (4D11 antibody, IgG4 with S228P) (antibody, V domains shown, Human IgG4 constant region with point mutation S228P (EU index; vector N5KG4P); also called IgG4P) VH: QLQLQESGPGLLKPSETLSLTCTVSGGSISSPGYYGGWIRQPPGKGLEWIGSIYKSGSTYHNPSLKSRVTISVDTSKNQFSLKLSSVTAADTAVYYCTRPVVRYFGWFDPWGQGTLVTVSS VL: AIQLTQSPSSLSASVGDRVTITCRASQGISSALAWYQQKPGKAPKLLIYDASNLESGVPSRFSGSGSGTDFTLTISSLQPEDFATYYCQQFNSYPTFGQGTKVEIK | 
4 |  | binds | 4D11 antibody IgG4 (antibody, V domains shown, Human IgG4 constant region (vector N5KG4), no point mutation; also called 4D11 IgG4) VH: QLQLQESGPGLLKPSETLSLTCTVSGGSISSPGYYGGWIRQPPGKGLEWIGSIYKSGSTYHNPSLKSRVTISVDTSKNQFSLKLSSVTAADTAVYYCTRPVVRYFGWFDPWGQGTLVTVSS VL: AIQLTQSPSSLSASVGDRVTITCRASQGISSALAWYQQKPGKAPKLLIYDASNLESGVPSRFSGSGSGTDFTLTISSLQPEDFATYYCQQFNSYPTFGQGTKVEIK | 

The next lines start with the binder.

Row | Binder | CD95 expression enhancing activity in Ramos cells, reduction against IgG2 [1] | binding result [4] | other results
5 | KM341-1-19 antibody, constant region converted into IgG1 (antibody, V domains shown) VH: QVQLQQSGPGLVKPSQTLSLTCAISGDSVSSNSATWNWIRQSPSRDLEWLGRTYYRSKWYRDYVGSVKSRIIINPDTSNNQFSLQLNSVTPEDTAIYYCTRAQWLGGDYPYYYSMDVWGQGTTVTVSS VL: EIVLTQSPATLSLSPGERATLSCRASQSVSSYLAWYQQKPGQAPRLLIYDASNRATGIPARFSGSGSGTDFTLTISSLEPEDFAVYYCQQRSNTFGPGTKVDIK | ≥ 10% |  | 
6 | KM341-1-19 antibody, constant region converted into IgG4 (antibody, V domains shown) VH: QVQLQQSGPGLVKPSQTLSLTCAISGDSVSSNSATWNWIRQSPSRDLEWLGRTYYRSKWYRDYVGSVKSRIIINPDTSNNQFSLQLNSVTPEDTAIYYCTRAQWLGGDYPYYYSMDVWGQGTTVTVSS VL: EIVLTQSPATLSLSPGERATLSCRASQSVSSYLAWYQQKPGQAPRLLIYDASNRATGIPARFSGSGSGTDFTLTISSLEPEDFAVYYCQQRSNTFGPGTKVDIK | ≥ 10% |  | 
7 | KM341-1-19 antibody (original IgG2) (antibody, Human IgG2; also called original KM341-1-19 antibody) heavy: QVQLQQSGPGLVKPSQTLSLTCAISGDSVSSNSATWNWIRQSPSRDLEWLGRTYYRSKWYRDYVGSVKSRIIINPDTSNNQFSLQLNSVTPEDTAIYYCTRAQWLGGDYPYYYSMDVWGQGTTVTVSSASTKGPSVFPLAPCSRSTSESTAALGCLVKDYFPEPVTVSWNSGALTSGVHTFPAVLQSSGLYSLSSVVTVPSSNFGTQTYTCNVDHKPSNTKVDKTVERKCCVECPPCPAPPVAGPSVFLFPPKPKDTLMISRTPEVTCVVVDVSHEDPEVQFNWYVDGVEVHNAKTKPREEQFNSTFRVVSVLTVVHQDWLNGKEYKCKVSNKGLPAPIEKTISKTKGQPREPQVYTLPPSREEMTKNQVSLTCLVKGFYPSDIAVEWESNGQPENNYKTTPPMLDSDGSFFLYSKLTVDKSRWQQGNVFSCSVMHEALHNHYTQKSLSLSPGK VL: EIVLTQSPATLSLSPGERATLSCRASQSVSSYLAWYQQKPGQAPRLLIYDASNRATGIPARFSGSGSGTDFTLTISSLEPEDFAVYYCQQRSNTFGPGTKVDIK |  |  | binding result [2]: binds; binding result [3]: binds
8 | KM341-1-19 antibody, constant region converted into IgG3 (antibody, V domains shown) VH: QVQLQQSGPGLVKPSQTLSLTCAISGDSVSSNSATWNWIRQSPSRDLEWLGRTYYRSKWYRDYVGSVKSRIIINPDTSNNQFSLQLNSVTPEDTAIYYCTRAQWLGGDYPYYYSMDVWGQGTTVTVSS VL: EIVLTQSPATLSLSPGERATLSCRASQSVSSYLAWYQQKPGQAPRLLIYDASNRATGIPARFSGSGSGTDFTLTISSLEPEDFAVYYCQQRSNTFGPGTKVDIK | ≥ 10% |  | 
9 | 2105 antibody, constant region converted into IgG1 (antibody, V domains shown) VH: EVQLVESGGGLVQPGRSLRLSCAASGFTFDDYAMHWVRQAPGKGLEWVSGISWNSGSLVHADSVKGRFTISRDNAKNSLYLQMNSLRAEDTALYYCARDRLFRGVRYYGMDVWGQGTTVTVSS VL: EIVLTQSPATLSLSPGERATLSCRASQSVSSYLAWYQQKPGQAPRLLIYDASNRATGIPARFSGSGSGTDFTLTISSLEPEDFAVYYCQQRSHWLTFGGGTKVEIK | ≥ 10% |  | 
10 | 2105 antibody, constant region converted into IgG4 (antibody, V domains shown) VH: EVQLVESGGGLVQPGRSLRLSCAASGFTFDDYAMHWVRQAPGKGLEWVSGISWNSGSLVHADSVKGRFTISRDNAKNSLYLQMNSLRAEDTALYYCARDRLFRGVRYYGMDVWGQGTTVTVSS VL: EIVLTQSPATLSLSPGERATLSCRASQSVSSYLAWYQQKPGQAPRLLIYDASNRATGIPARFSGSGSGTDFTLTISSLEPEDFAVYYCQQRSHWLTFGGGTKVEIK | ≥ 10% |  | 
11 | 2105 antibody, constant region converted into IgG3 (antibody, V domains shown) VH: EVQLVESGGGLVQPGRSLRLSCAASGFTFDDYAMHWVRQAPGKGLEWVSGISWNSGSLVHADSVKGRFTISRDNAKNSLYLQMNSLRAEDTALYYCARDRLFRGVRYYGMDVWGQGTTVTVSS VL: EIVLTQSPATLSLSPGERATLSCRASQSVSSYLAWYQQKPGQAPRLLIYDASNRATGIPARFSGSGSGTDFTLTISSLEPEDFAVYYCQQRSHWLTFGGGTKVEIK | ≥ 10% |  | 

Source: patent US20070148163A1 (Kyowa Kirin, published 2007)
